Measurements published in patent publication US20250012721A1, “FLUORESCENCE DETECTION KIT FOR ACTIVATED COMPLEMENT C1s, DETECTION METHOD USING SAME, AND USE THEREOF” (JIANGSU UNIVERSITY, priority 2022, published 2025).

System: activated C1s
Experiment: Cross reaction test of fluorescence detection method for activated C1s
Format: biochemical
Conditions: for Measured concentration: interferent in PBS: double-stranded C1r 660 μg/mL, MASP1 and MASP2 5000 μg/mL; for Cross reaction rate (%): measured value/theoretical value×100%
Procedure: • 1. Preparation of a buffer: 1) Binding Buffer: 0.1 M morpholinoethanesulfonic acid (MES, pH=5.0); • 2) Washing Buffer: TBS containing 0.05% Tween 20; • 3) Blocking Buffer: containing 0.05 M Tris, 1.0% BSA, and 0.05% Tween 20; • 4) Desired Buffer: Tris buffer containing 0.05% Tween 20 and BSA; and • 5) Tris Buffer: 0.05 M Tris, 0.15 M NaCl, and 0.2% (w/v) polyethylene glycol 8000. • 2. Preparation of immunomagnetic beads (C1s recombinant antibody-coupled magnetic beads) • (1) 10 mg of magnetic beads (Merck carboxyl magnetic beads, with a particle size of 1 μm) were washed 3 times with 1 mL of Binding Buffer, and vortexed to mix evenly. • (2) 20 μg of the C1s recombinant antibody obtained in Example 1 was added into every 1 mg of the magnetic beads, mixed well, and vortexed at a room temperature (25° C.) for 15 min. • (3) 50 μg of a coupling agent was added into every 1 mg of the magnetic beads, mixed well, and vortexed at a room temperature for 1 h. • (4) 1 mL of Binding Buffer was added and vortexed at a room temperature for 3 h. • (5) The magnetic beads were washed 4 times with 0.5 mL of Washing Buffer. • (6) The magnetic beads were resuspended with 1 mL of Desired Buffer to obtain C1s recombinant antibody-coupled magnetic beads with a concentration of 5 mg/mL, and stored at 4° C. until later use. • 3. Detection of the enzymatic activity of activated C1s • (1) 60 μL of the C1s recombinant antibody-coupled magnetic beads were stirred evenly, subjected to magnetic suction to remove a supernatant, added with 200 μL of PBS to mix well, subjected to the magnetic suction to remove a supernatant, and washed repeatedly 2 times. • (2) 10 μL of a sample to be tested or activated C1s standards with different concentrations were diluted to 100 μL with PBS, and mixed vertically with the C1s recombinant antibody-coupled magnetic beads at a room temperature for 10 min. The magnetic suction was performed to discard a supernatant. According to the enzymatic activity of the C1s standard determined in Example 4, the enzymatic activity conversion of the C1s standards with different concentrations is shown in Table 2.
• (3) The magnetic beads were repeatedly washed 3 times with 100 μL of PBS. • (4) The magnetic beads were resuspended with 90 μL of Tris buffer. • (5) 10 μL of substrate peptide 3 was added at a concentration of 1 μg/mL. • (6) The detection was performed with a microplate reader at 360/40 excitation light wave and 460/40 emission light wave, with a best reaction time of 1 h as a detection point, and the fluorescence signals were measured and recorded. The straight line fitting was performed by taking a C1s enzymatic activity as an abscissa and a fluorescence signal as an ordinate with a double logarithmic Log-Log mathematical model and using a least square method to plot a standard curve.
In this example, the specificity of the activated C1s was tested. The interfering antigenic substances (complement analogues) that might exist in serum were detected, such as double-stranded C1r, MASP1, and MASP2. The double-stranded C1r, MASP1, and MASP2 were separately diluted with PBS, and the diluted concentrations were 0.66 mg/mL, 5 mg/mL, and 5 mg/mL, successively. The complement analogues were detected based on the steps of Example 5. A cross reaction rate of various substances was calculated. Cross reaction rate=measured value/theoretical value×100%. […] The cross reaction rates were all less than 0.5%.

B1: MASP1: interfering antigenic substance (complement analogue), from Abnova (protein)
chain: HTVELNNMFGQIQSPGYPDSYPSDSEVTWNITVPDGFRIKLYFMHFNLESSYLCEYDYVKVETEDQVLATFCGRETTDTEQTPGQEVVLSPGSFMSITFRSDFSNEERFTGFDAHYMAVDVDECKEREDEELSCDHYCHNYIGGYYCSCRFGYILHTDNRTCRVECSDNLFTQRTGVITSPDFPNPYPKSSECLYTIELEEGFMVNLQFEDIFDIEDHPEVPCPYDYIKIKVGPKVLGPFCGEKAPEPISTQSHSVLILFHSDNSGENRGWRLSYRAAGNECPELQPPVHGKIEPSQAKYFFKDQVLVSCDTGYKVLKDNVEMDTFQIECLKDGTWSNKIPTCKIVDCRAPGELEHGLITFSTRNNLTTYKSEIKYSCQEPYYKMLNNNTGIYTCSAQGVWMNKVLGRSLPTCLPVCGLPKFSRKLMARIFNGRPAQKGTTPWIAMLSHLNGQPFCGGSLLGSSWIVTAAHCLHQSLDPEDPTLRDSDLLSPSDFKIILGKHWRLRSDENEQHLGVKHTTLHPQYDPNTFENDVALVELLESPVLNAFVMPICLPEGPQQEGAMVIVSGWGKQFLQRFPETLMEIEIPIVDHSTCQKAYAPLKKKVTRDMICAGEKEGGKDACAGDSGGPMVTLNRERGQWYLVGTVSWGDDCGKKDRYGVYSYIHHNKDWIQRVTGVRN
C1s equivalent in brackets
  Measured concentration: 2 µg/mL
  Measured concentration: 1.82 pmol/min/µg
  Cross reaction rate (%): 0.04%

B2: MASP2: interfering antigenic substance (complement analogue), from Abnova (protein)
chain: TPLGPKWPEPVFGRLASPGFPGEYANDQERRWTLTAPPGYRLRLYFTHFDLELSHLCEYDFVKLSSGAKVLATLCGQESTDTERAPGKDTFYSLGSSLDITFRSDYSNEKPFTGFEAFYAAEDIDECQVAPGEAPTCDHHCHNHLGGFYCSCRAGYVLHRNKRTCSALCSGQVFTQRSGELSSPEYPRPYPKLSSCTYSISLEEGFSVILDFVESFDVETHPETLCPYDFLKIQTDREEHGPFCGKTLPHRIETKSNTVTITFVTDESGDHTGWKIHYTSTAQPCPYPMAPPNGHVSPVQAKYILKDSFSIFCETGYELLQGHLPLKSFTAVCQKDGSWDRPMPACSIVDCGPPDDLPSGRVEYITGPGVTTYKAVIQYSCEETFYTMKVNDGKYVCEADGFWTSSKGEKSLPVCEPVCGLSARTTGGRIYGGQKAKPGDFPWQVLILGGTTAAGALLYDNWVLTAAHAVYEQKHDASALDIRMGTLKRLSPHYTQAWSEAVFIHEGYTHDAGFDNDIALIKLNNKVVINSNITPICLPRKEAESFMRTDDIGTASGWGLTQRGFLARNLMYVDIPIVDHQKCTAAYEKPPYPRGSVTANMLCAGLESGGKDSCRGDSGGALVFLDSETERWFVGGIVSWGSMNCGEAGQYGVYTKVINYIPWIENIISDF
C1s equivalent in brackets
  Measured concentration: 1.8 µg/mL
  Measured concentration: 1.64 pmol/min/µg
  Cross reaction rate (%): 0.04%

B3: Double-stranded C1r: interfering antigenic substance (complement analogue) that might exist in serum (protein)
chain: SIPIPQKLFGEVTSPLFPKPYPNNFETTTVITVPTGYRVKLVFQQFDLEPSEGCFYDYVKISADKKSLGRFCGQLGSPLGNPPGKKEFMSQGNKMLLTFHTDFSNEENGTIMFYKGFLAYYQAVDLDECASRSKSGEEDPQPQCQHLCHNYVGGYFCSCRPGYELQEDTHSCQAECSSELYTEASGYISSLEYPRSYPPDLRCNYSIRVERGLTLHLKFLEPFDIDDHQQVHCPYDQLQIYANGKNIGEFCGKQRPPDLDTSSNAVDLLFFTDESGDSRGWKLRYTTEIIKCPQPKTLDEFTIIQNLQPQYQFRDYFIATCKQGYQLIEGNQVLHSFTAVCQDDGTWHRAMPRCKIKDCGQPRNLPNGDFRYTTTMGVNTYKARIQYYCHEPYYKMQTRAGSRESEQGVYTCTAQGIWKNEQKGEKIPRCLPVCGKPVNPVEQRQRIIGGQKAKMGNFPWQVFTNIHGRGGGALLGDRWILTAAHTLYPKEHEAQSNASLDVFLGHTNVEELMKLGNHPIRRVSVHPDYRQDESYNFEGDIALLELENSVTLGPNLLPICLPDNDTFYDLGLMGYVSGFGVMEEKIAHDLRFVRLPVANPQACENWLRGKNRMDVFSQNMFCAGHPSLKQDACQGDSGGVFAVRDPNTDRWVATGIVSWGIGCSRGYGFYTKVLNYVDWIKKEMEEED
C1s equivalent in brackets
  Measured concentration: 1 µg/mL
  Measured concentration: 0.91 pmol/min/µg
  Cross reaction rate (%): 0.15%
Listed as double-stranded C1r
  Cross reaction rate (%): 0.3%
